Assay [1] concerns the target mEGFP tagged quaternary complexes.
Assay [2] has the same target. This is another data set of the same source.

The results in this text go back to US20150268247A1, “Assay for Screening of Anti-Viral Compounds That Inhibit Specific Interaction Interfaces Between Cullin5 and an ElonginB/ElonginC/ CBF-beta/HIV-1 Vif Complex” (UNIVERSITY OF ROCHESTER, priority 2012, published 2015).

In the case of “sREACh-Cul5(N) (sREACh with F46L, Q69M, F223R, flexible linker, human Cul5 residues 2-384 with V341R, L345D)”, the percent quenching in assay [1] stood at 20%. Consider “Cul5(N)-sREACh (human Cul5 residues 2-384 with V341R, L345D, C-terminally tagged with sREACh with F46L, Q69M, F223R)”, for which, in assay [2], the percent decrease in fluorescence (FRET quench) came out at 8%.
